B1: FLAF p40 (ligand)
chain: IWELEKNVYVVELDWHPDAPGEMVVLTCNTPEEDDITWTSDQSSEVLGSGKTLTIQVKEFADAGQYTCHKGGEVLSHSFLLIHKKEDGIWSTDILREQKESKNKIFLKCEAKNYSGRFTCWWLTAISTDLKFTVKSSRGSSDPQGVTCGAATLSAEKVRVDNRDYKKYTVECQEGSACPAAEESLPIEVVVDAIHKLKYENYTSSFFIRDIIKPDPPKNLQLKPLKNSRHVEVSWEYPDTWSTPHSYFSLTFGVQVQGKNNREKKDRLSVDKTSAKVVCHKDAKIRVQARDRYYSSSWSNWASVSCS
notes: also called protein with a molecular weight of about 40,000
B2: FLAF p35 (ligand)
chain: RNLPTPTPSPGMFQCLNHSQTLLRAISNTLQKARQTLEFYSCTSEEIDHEDITKDKTSTVEACLPLELTMNESCLASREISLITNGSCLASRKTSFMTTLCLSSIYEDLKMYQVEFKAMNAKLLMDPKRQIFLDQNMLTAIDELLQALNVNSVTVPQNSSLEEPDFYKTKIKLCILLHAFRIRAVTINRMMSYLNSS
notes: also called protein with a molecular weight of about 35,000

Assays:
[1] = molecular target: the molecule itself; assay: Western blot of culture supernatant of COS7 cells transfected with CAGfp40; self-association of p40
Experimental: The day (20 hours) before transfection, COS7 cells were plated on a 6 well plate at 2×10⁵ cells/well. On the next day, Lipofect Ace reagent was mixed with the expression plasmid (1 μg of cAGf40 per well) and the mixture was left to stand at room temperature for 15 minutes and then added to the COS7 cells, followed by addition of serum free medium Opti-MEM (0.8 ml). On the next day, 2 ml of serum free medium (ASF104; Ajinomoto K. K.) was added and culture was continued for additional 2 days and then culture supernatant was recovered. A portion of the supernatant was subjected to Western blot as described in Example 11 to detect expression products which reacted with polyclonal antibodies which recognize FLAF p40. As a result, bands corresponding to FLAF p40 reactive with anti-FLAF p40 antibody (MW about 40,000) and to a homologous dimer thereof (MW about 80,000) were detected (FIG. 11).
A polyclonal antibody against FLAF p40 was prepared by injecting each 1 ml of the FLAF p40 expression plasmid (CAGfp40) (1 mg/ml; Example 5) intramuscularly into both rear legs of a rabbit four times at every 3 weeks. Western blot was used to determine whether the obtained antibody recognized FLAF p40 (FIG. 16). First, purified FLAF was subjected to SDS-PAGE in the absence of 2-mercaptoethanol and then transferred to PVDF membrane as described in Example 3. […]

[2] = molecular target: B1; assay: non-reducing SDS-PAGE and Western blot with anti-p35 and anti-p40 antibodies; subunit association
Experimental: These bands were analyzed by Western blot as described in Example 2 wherein two membranes were prepared, i.e. one using a monoclonal antibody against the partial synthetic peptide of FLAF p35 produced by the clone F18-4 as described in Example 12 as a primary antibody and another using the antibody against FLAF p40 as described in Example 11. As a result, both p75 and p80 reacted with both antibodies to confirm that they are both heterologous dimer of FLAF p35 and FLAF p40.

Binder: B1
- binding result [1]: binds

Binder: B2
- binding result [2]: binds

— patent publication US20020107366A1 (JURIDICAL FOUNDATION THE CHEMO SERO THERAPEUTIC RESEARCH …, published 2002)
